Common to all, as to details: remark: other sources report otherwise
Assay [1] has as its target T1, SARS-CoV-2 Spike (S) protein, strain BetaCoV/Wuhan-Hu-1/2019, full length (SARS-CoV-2 Wuhan-Hu-1), P0DTC2. Description: flow cytometry, ExpiCHO cells transfected with SARS-CoV-2 S; MFI (AF647). Background: Flow cytometry measures light scatter and fluorescence of single cells or particles in a stream.
Assay [2] addresses T1, SARS-CoV-2 Spike (S) protein, strain ….
For assay [3] the target is unchanged. Description: flow cytometry, ExpiCHO cells expressing SARS-CoV-2 S; % positive cells.
Assay [4] shares this target. This is another data set of the same source.

Read-outs that look alike come from different tables or passages of the source.

B1: S306 (antibody)
heavy: QVQLVQSGAEVKKPGASVKVSCKASTYTFTSFGISWVRQAPGQGLEWMGWITTYSGDTNYAQKFQGRVTMTTDTSTNTAYMELRSLRSDDTAVYYCASDYFDSSGYYHSFDYWGQGTLVTVSS
light: EIVLTQSPDTLSLSPGERATLSCRASQSVSSYLAWYQQRPGQAPRLLIYDASKRATGIPARFSGSGSGTDFTLTISSLEPEDFAVYYCQQRSNWPPGCSFGQGTKVEIK
Take B1: the EC50 (read off the curve) stood at 0.2 µg/mL in assay [1], 0.2 µg/mL in assay [2] and 0.001 µg/mL in assay [3].

B2: SARS-CoV-2 S306 mAb (B cell supernatant) (antibody, V domains shown)
VH: QVQLVQSGAEVKKPGASVKVSCKASTYTFTSFGISWVRQAPGQGLEWMGWITTYSGDTNYAQKFQGRVTMTTDTSTNTAYMELRSLRSDDTAVYYCASDYFDSSGYYHSFDYWGQGTLVTVSS
VL: EIVLTQSPDTLSLSPGERATLSCRASQSVSSYLAWYQQRPGQAPRLLIYDASKRATGIPARFSGSGSGTDFTLTISSLEPEDFAVYYCQQRSNWPPGCSFGQGTKVEIK
The molecule B2 returned a POS in assay [4] of 57.6.

A word on the EC50 (read off the curve): it is the concentration at which the effect is half-maximal. A low value points to greater potency.

For the origin of these results see patent US20230331821A1.
